Results as given in article PMC11551755, “Structure-based discovery of first inhibitors targeting the helicase activity of human PIF1” (Nucleic Acids Research, 2024).
Numbering of substitutions follows the chain as printed.

What was measured:
hPIF1HD V258A = target: T1, hPIF1HD V258A (Homo sapiens, UniProt Q9H611 206-620, V258A); test: EMSA; 5 mM AMP-PNP, 5.5 mM MgCl2; no inhibitor; 20 mM HEPES-NaOH pH 7.5, 20 mM NaCl, 5.5 mM MgCl2, 5 mM AMP-PNP, 1 mM DTT, 0.1 mg/ml BSA; 0.25 nM DNA; binding temperature not stated explicitly (helicase assay conditions 37 C); 5% PAGE, 0.25x TBE; conditions: protein: recombinant; tags: N-terminal His6 removed; GSRM cloning residues remain; label: 5'-32P; single strand
T1 sequence: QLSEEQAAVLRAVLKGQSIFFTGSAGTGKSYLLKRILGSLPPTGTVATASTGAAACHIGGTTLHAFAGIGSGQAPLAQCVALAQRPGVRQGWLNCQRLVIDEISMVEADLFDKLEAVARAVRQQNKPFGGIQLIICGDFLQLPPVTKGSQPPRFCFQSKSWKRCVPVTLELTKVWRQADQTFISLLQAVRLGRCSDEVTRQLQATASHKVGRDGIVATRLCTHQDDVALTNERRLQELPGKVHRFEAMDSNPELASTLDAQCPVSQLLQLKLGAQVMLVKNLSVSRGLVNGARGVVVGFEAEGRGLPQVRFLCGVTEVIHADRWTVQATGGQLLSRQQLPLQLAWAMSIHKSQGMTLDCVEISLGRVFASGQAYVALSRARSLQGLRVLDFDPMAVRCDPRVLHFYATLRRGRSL

hPIF1HD V258L = target: T2, hPIF1HD V258L (Homo sapiens, UniProt Q9H611 206-620, V258L); test: as above; conditions: protein: recombinant; tags: N-terminal His6 removed; GSRM cloning residues remain; label: 5'-32P; single strand
T2 sequence: T1 sequence with A53L

B1: oligo d(T)55 (ssDNA)
DNA: TTTTTTTTTTTTTTTTTTTTTTTTTTTTTTTTTTTTTTTTTTTTTTTTTTTTTTT
binding signal (hPIF1HD V258A): ~2 fold reduced vs wild type
binding signal (hPIF1HD V258L): ~1 fold vs wild type (near equivalent)
